{"source": "the nanobody polyreactivity screen of Harvey et al. (2022)"}
{"experiment": "yeast display, Sf9 membrane polyspecificity reagent, FACS + sequencing; frameworks hold sequencing errors", "how_it_was_run": "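Polyreactivity labels are assigned by the sorting gate from which each nanobody was recovered. The gates were low and high (top ~1%), set on anti-HA fluorescence for expression and streptavidin fluorescence for reagent binding. Before sorting, galactose-induced (36–48 hours) yeast display cells were stained for 1 hour at 4 °C with 10% biotinylated, detergent-solubilized Sf9 membrane reagent.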"}
{"sequence": "QVKHVESGGGLVQAGCILRLSCSASGSTFARYAMGWYRQSPGKERELVAGISQSGGTTYYADSVKGRFTISRDNEKNTVYLQMNSLKPEDTAVYYCAARRWVAYTLEYWGQGTQVTVSS", "polyreactivity (PSR sort gate)": "high polyreactivity"}
{"sequence": "QVKIVESGGGLVQAGGSLRLSCAASGGIFNWYAMGWYRPAPGKERELVAAITQSGGSTYYADSVKGRFTISRDNAKNTEYLQMNSLKPEDTAVYYCNKDQEKFWTAFNTIGRAREYDYWGQGTQVTVSS", "polyreactivity (PSR sort gate)": "low polyreactivity"}
{"sequence": "QVKLEESGGGLVQAGGSISLSCAASGSIFFWYTMGCYRQAPGKERELVATITGSGSSTTYADSVKGRFTISRDNAKNTVYLQMNSLKPEDTAVYYCAAADIIDHSFTYDYWGQGTQVTVSS", "polyreactivity (PSR sort gate)": "low polyreactivity"}
{"sequence": "QVKLEESGGGLVQAGGSLRLSCAASGSTFPGNAMGSYRQAPGKERELVAAINWSGDSTYYADSVKGRFTNSRDKPKNTVYLQMNSLTPEDTAVYYCAAYGDGYYYWGQGTQVTVSS", "polyreactivity (PSR sort gate)": "low polyreactivity"}
{"sequence": "QVKLQESGGSHVQAGGSLRLSCAASGFIFARNYIGWYRQAPCKERELVAGIGVRASTNYADSDKGRFTISRDNAKNSVYLQMNSLEPEDTAVYYCAVGDTVLGYHYYWGQGTQVTVSN", "polyreactivity (PSR sort gate)": "low polyreactivity"}
{"sequence": "QVKLVDSGGGLVQAGGSLRLTCAASGRTLGRNGMGWYRQDPGKERELVAAISLSGGRSYADSVKGRFTISRDNAKNSVYLQMNSLKPEDTAVYYCAKVGYSRRYAYNVYYWGQGTQLTVSS", "polyreactivity (PSR sort gate)": "low polyreactivity"}
{"sequence": "QVKLVESAAGLVQPGGSHRLSCAASGRIFSYYAMGWSRQAPGKDRELVAAISRTGGTTYYADSVKGRFTSSRDNAKNTVYLQMNSLKPEDTAVYYCNAVKAPYLSYDYWGKGTQVTVSS", "polyreactivity (PSR sort gate)": "high polyreactivity"}
{"sequence": "QVKLVESGGGLDQAGGSLRLSCAASGRTFGSYTMGWYRQAPGKERELVAAITSGGRTNYADSVKGRFTISRDNAKNTVYLQMNSLKPEDTAVYYCAAGWRGGRYRYFAYDYWGQGTQVTVSS", "polyreactivity (PSR sort gate)": "high polyreactivity"}
{"sequence": "QVKLVESGGGLVQAGGRLSLSCAASGLTLSGNAMGWYRQAPGKDRELVAAITGRGGSTTYADSVKGRFTISRDNAKNTVYLQMNSVKPEDTAVYYCAATRYSWNNRVSRRHRYEYWGQGTQVTVSS", "polyreactivity (PSR sort gate)": "high polyreactivity"}
{"sequence": "QVKLVESGGGLVQAGGSLLLSCAASGITFSRNAMGLYREAPGKERELVAAINWTGGNTYYADSVKGRFTISRDNAKNTVYLQMISMKPEDTAVYYCAAERRCFVWGLGYWGQGTQVTVSS", "polyreactivity (PSR sort gate)": "low polyreactivity"}
{"sequence": "QVKLVESGGGLVQAGGSLLLSCDASGIIFKYYAMGWYRQAPGKERELVARITARGGRTYYADSVKGRFTISRDNAKNTVYLQMNSLKPEDTAFYYCAKKLRGWHTIITDYDYWGQGTQLTVSS", "polyreactivity (PSR sort gate)": "low polyreactivity"}
{"sequence": "QVKLVESGGGLVQAGGSLRISCAASVSIFPVYAMGWYRQAPGKERELVAAISSRGGRTYYADSVKGLFTISRDNAKNTVYLQMNSLKPEDNAVYYFATDYSTYYRLPSQYDYWGQGTQVTVSS", "polyreactivity (PSR sort gate)": "low polyreactivity"}
{"sequence": "QVKLVESGGGLVQAGGSLRLICAASGFTFRYYTMGWYRQAPGKARELVAAISRSSGSRTYYADSVKGRFTISRDNAKNTVYLQMNSLKPEDTAVYYCNADPAYQFDYWGQGTQVTVSS", "polyreactivity (PSR sort gate)": "high polyreactivity"}
{"sequence": "QVKLVESGGGLVQAGGSLRLSCAASGIIFYDYAMGWYRQAPGKERELVAAISSGGDTYYADSVKGRFTISRDNAKNTVYLQMNSLKPEVTAVYYCAAYPPFIYSDPSIWYDYWGQGSQVTVSS", "polyreactivity (PSR sort gate)": "low polyreactivity"}
{"sequence": "QVKLVESGGGLVQAGGSLRLSCAASGIIFYSYAIGGYRPAPGTERELVAAISSTGSTYYADSVKGRFTISRDNAKNTVYLQMNSLKPEDTAVYYCAATFYPYQVHHYYYWGQGTQVTVSS", "polyreactivity (PSR sort gate)": "low polyreactivity"}
{"sequence": "QVKLVESGGGLVQAGGSLRLSCAASGRIFGRNTMGWYRQAPGKEREFVATITSGGSTYYADSVKGRFTISRDNAKNTVYLQMNSLKPEDTAVYYFNARGYSWRWYPLTSDYDSWGQGTQVTVSS", "polyreactivity (PSR sort gate)": "high polyreactivity"}
{"sequence": "QVKLVESGGGLVQAGGSLRLSCAASGRIFRFNPMGCYRQAPGKERELVAASNWRGGTTYADSVKGRFTISRDNAKNTVYLQMNSLKPEDTAVYYCNAGYGVTKWPYEERYDYWGQGTQVTLSS", "polyreactivity (PSR sort gate)": "high polyreactivity"}
{"sequence": "QVKLVESGGGLVQAGGSLRLSCAASGRTFPSYAMGWYRQAPGKERELVAAISRSGGSTYYADSVKGRFTISRDNAKNPVYLQMNSLKPEDTAVYYCAAVSRVHFSYIYDYWGQGTQVTVSS", "polyreactivity (PSR sort gate)": "high polyreactivity"}
{"sequence": "QVKLVESGGGLVQAGGSLRLSCAASGRTFPYYAKGWYRQAPGKERELVAAISWSGGSTYYADSVKGRFTISRDNAKNTVYLQMNSLKPEDTAVYYCNTVFSPWPDFRRFGYWGQGTQVTVSS", "polyreactivity (PSR sort gate)": "high polyreactivity"}
{"sequence": "QVKLVESGGGLVQAGGSLRLSCAASGRTFYLYAMGWYRQAPGKERELVARITSGGTTNYADSVKGRFTISRDNAKNTVYLQMNSLKPEDTAVYYCAADPEGLGRVASRYFHFDYWGQGTQVTVSS", "polyreactivity (PSR sort gate)": "low polyreactivity"}
{"sequence": "QVKLVESGGGLVQAGGSLRLSCAASGSIFLAYAMGWYRQAPGKEREFVAAISCSDGSTYYADSVKGRFTISRDNAKNTVYLQMNSLKPDDTAVFYCYKGASADDYDYCGQGTQVTVSS", "polyreactivity (PSR sort gate)": "low polyreactivity"}
{"sequence": "QVKLVESGGGLVQAGGSLRLSCAASGSIFLVKVMGWYRQAPGKERELVAAITWSGGRTYYADSVKGRFTISRDNAKNTVYLQMIILKPEDTAVYYCAAEGWLLNGDSWGQGTQVTVSS", "polyreactivity (PSR sort gate)": "high polyreactivity"}
{"sequence": "QVKLVESGGGLVQAGGSLRLSCAASGSIFPHYAMGWYRQAPGKERELVAAISRGGSTNYADSVKGRFTISRDNAKNTVYLQMNSLKPEDTAVYYCNALRYYSRFLYAVAYRYDYWGQGSQVTVSS", "polyreactivity (PSR sort gate)": "high polyreactivity"}
{"sequence": "QVKLVESGGGLVQAGGSLRLSCAASGSIFRRYGMGWYRQAPGKERELVAVITRGGSTYYADSVKGRFTISRDNAKNTVYLQMNSLKPEDTAVYYCNRSAGKDGQVGGQYDYWGQGTQVTVSS", "polyreactivity (PSR sort gate)": "high polyreactivity"}
{"sequence": "QVKLVESGGGLVQAGGSLRLSCAASGSIFVGYAIVWYRQAPGKERELVAAISTRGGSTYYADSVKGRFTISRENAKNTVYLKMNSLTPEDTAVYYCAADYLDSTYGYVYGWDDYWGQGTQVTVSS", "polyreactivity (PSR sort gate)": "low polyreactivity"}
{"sequence": "QVKLVESGGGLVQAGGSLRLSCAASGSIFYQYAMGGNRQAPGKERELVAVINRSGSSTYYADSVKGRFTISRDNAKNTVYLQMNSLKPEDTAVYYCAGASKYSEYNYWGQGTQVTVSS", "polyreactivity (PSR sort gate)": "high polyreactivity"}
{"sequence": "QVKLVESGGGLVQAGGSLRLSCAASGSTFPGYAMGWYRQAPGKERELVAAGGSTYYADSVKGRFTISRDNAKNTVYLQMNSLKTEDTAVYYCAATWGSVQKGTYYYWGQGTQVTVSS", "polyreactivity (PSR sort gate)": "low polyreactivity"}
{"sequence": "QVKLVESGGGLVQAGGSLRLSCAASGSTFVGYAMGWYRQAHGKERELVAAINDSGGSTYYADSVKGRFTISRDNAKNTVYLQMNSLKPEDTAVYYCAADSSGTSWYTFDYWGQGTQVTVSS", "polyreactivity (PSR sort gate)": "low polyreactivity"}
{"sequence": "QVKLVESGGGLVQAGGSLRLSCAAYGSTFTRNAMGWYRQAPGKERQLVAAITSGGSTNYADSVKGRFTISRDNAKNTVYLEMNSLKPEDTAVYYCAAGLGRYFYSWRYLYSIFDYWGQGTQVTVSS", "polyreactivity (PSR sort gate)": "low polyreactivity"}
{"sequence": "QVKLVESGGGLVQAGGSLRLSFAASGYTFGSNAMGWYRQAPGKERELVADIDCSSGNTYYADSVKGRFTISRDNAKNTVYLQMNSLKPEDTAVYYCAAELHIYYSWYWYDYWGQGTQVTVSS", "polyreactivity (PSR sort gate)": "high polyreactivity"}
{"sequence": "QVKLVESGGGLVQAGGSLRLTCAASGITFFIYAMGWYRQAPGKERELFYAIRSGGSTNYADSVKGRFTISRDNAKNTVYLQMNSLKPEDTAVYYCAADVYGTVRRVGWYYVGEGYDYWGQGTQLTVSS", "polyreactivity (PSR sort gate)": "low polyreactivity"}
{"sequence": "QVKLVESGGGLVQAGGTLRLSCAASGSISWVYAMGWYRQAPGKERELVADITDSGDSTYYADSVKGRFTISRDNAKNTVYLQMNSLKPEDTAVFYCAAVSGPFVQTSGNGEYDYCGQGTQVTVSS", "polyreactivity (PSR sort gate)": "low polyreactivity"}
{"sequence": "QVKLVESGGGLVQAVGILSLSCAASGSILGLYAMGWYRQAPGKERELVASITSSGSTYYADSVKGRFTISRDNAKNTVYLQMIILKPEDTAVYYCAAVVSYYYYIRYDYWGQGTQVTVSS", "polyreactivity (PSR sort gate)": "low polyreactivity"}
{"sequence": "QVKLVESGRGFVQAGGSLRISCAASGITFRYNAMGWYRQAPGKERELVAAITFSGGSTYYSDSVKGRFTISRDNAKNTVYLQMNILKPEDTAVYYCAKLGSTSTRGNYDYWGQGTQVTVSS", "polyreactivity (PSR sort gate)": "low polyreactivity"}
{"sequence": "QVKLVESGRGLVQAGGSLRLSCAASGSIFAQNVMGWYRQAPGKERELVAAISYSGGTTYYADSVKGRFTISRDNAQNTVYLQMNSLKPEDTAVYYCAAEFGVYEYDYWGQGTQVTVSS", "polyreactivity (PSR sort gate)": "low polyreactivity"}
{"sequence": "QVKRVESGGGLVQAGGSLRLSCAASGIIFTYYAMGWYRQAPGKERELVAAISWTGGRTYFADSVKGRFTISRDNAKNTVYLQMNSLKREDTAVYYCAAKQYTRFGYYYWGQGTQVTVSS", "polyreactivity (PSR sort gate)": "high polyreactivity"}
{"sequence": "QVLLQESGGGLVQAGGSLRLSCAASGNIFSAGGMGWSRQAPVNERELVAGIGTGTSTNYADSVKGRFTISRDNSKNTVYLQMNSLTPEDTAVYYCAAAYYSGLSHWYWGQGTQVTVSS", "polyreactivity (PSR sort gate)": "low polyreactivity"}
{"sequence": "QVLLQESGGGLVQAGGSLRLSCAASGNIFSAGGMGWYRQAPVKELELVAGIGTGTSTNYADSVKGRFTISRDNAKNTVYLQMNSLKPEDTAVYYCAADSYPAYLGFVGFDYWGQGTQVNVSS", "polyreactivity (PSR sort gate)": "low polyreactivity"}
{"sequence": "QVLLQETGGGLVQAGGSLRLSCAASGTISTDIRMGWYRLAPGKESEFVASIDCCSTTYYADSVKGRFTISRDNAKYTVYLQMNSLKPEDTAMYYCAAREATEFYLYYWGQGTQVTVSS", "polyreactivity (PSR sort gate)": "low polyreactivity"}
{"sequence": "QVLLVESAGGLVQAGGSLRLSCAASGRTFYRYAMGWYRQAPGKERELVAVISWTSGSTYYADSVKGRFTISRDNAKNTVYLQMNSLKPEDTAVYYCAARRGGSYRYEYWGQGTQVTVSS", "polyreactivity (PSR sort gate)": "high polyreactivity"}
{"sequence": "QVLLVESGGGLVQAGGSIRLSCAASGFIFWSNSLGWYRPAPGQEMELVAAISWSGGSTYYADSVKGRFTISRDNAKNNVYLEMNSVKPEDTAVYYCAARQTYGYRYTKYGYWGQGTQVTVSS", "polyreactivity (PSR sort gate)": "high polyreactivity"}
{"sequence": "QVLLVESGGGLVQAGGSLRLSCAASGLTFERYAMGWYRQAPGKERELVAAISIRGGSTYYADSVKGRFTISRDKAMNTVYFQMKSLKPEDTAVDYCSADGSGREYDYWGQGTQVTVSS", "polyreactivity (PSR sort gate)": "low polyreactivity"}
{"sequence": "QVLLVESGGGLVQAGGSLRLSCAASGRIFNAYAMGWYRQAPGKERELVAAISRSGGRTYYADSVKGRFTISRDNAKITVYLQMNSLKPEDTAVYYCAADAWSEQYPKYYYWGQGTQVTVSS", "polyreactivity (PSR sort gate)": "low polyreactivity"}
